Patent US20100120171A1

Key:
[1] = molecular target: recombinant fragment of human VE-cadherin extracellular region, CAD 1-4 fragment (Asp48-Glu478, preceded by Met), SEQ ID NO: 4 (human) (UniProt P33151); test: sandwich ELISA, BV9 capture, rabbit polyclonal detection; CAD1-4 at 1.25 ng/mL; mean OD minus OD at 0 ng/mL
[2] = molecular target: recombinant fragment of human VE-cadherin extracellular region, CAD 1-4 fragment (Asp48-Glu478, preceded by Met), SEQ ID NO: 4 (human) (UniProt P33151); test: sandwich ELISA, BV9 capture, rabbit polyclonal detection; CAD1-4 at 2.5 ng/mL
[3] = molecular target: recombinant fragment of human VE-cadherin extracellular region, CAD 1-4 fragment (Asp48-Glu478, preceded by Met), SEQ ID NO: 4 (human) (UniProt P33151); test: sandwich ELISA, BV9 capture, rabbit polyclonal detection; CAD1-4 at 0.63 ng/mL; first replicate
[4] = molecular target: recombinant fragment of human VE-cadherin extracellular region, CAD 1-4 fragment (Asp48-Glu478, preceded by Met), SEQ ID NO: 4 (human) (UniProt P33151); test: sandwich ELISA, BV9 capture, rabbit polyclonal detection; CAD1-4 at 0.63 ng/mL; mean OD minus OD at 0 ng/mL
[5] = molecular target: recombinant fragment of human VE-cadherin extracellular region, CAD 1-4 fragment (Asp48-Glu478, preceded by Met), SEQ ID NO: 4 (human) (UniProt P33151); test: sandwich ELISA, BV9 capture, rabbit polyclonal detection; CAD1-4 at 2.5 ng/mL; first replicate
[6] = molecular target: recombinant fragment of human VE-cadherin extracellular region, CAD 1-4 fragment (Asp48-Glu478, preceded by Met), SEQ ID NO: 4 (human) (UniProt P33151); test: sandwich ELISA, BV9 capture, rabbit polyclonal detection; CAD1-4 at 5 ng/mL; first replicate
[7] = molecular target: recombinant fragment of human VE-cadherin extracellular region, CAD 1-4 fragment (Asp48-Glu478, preceded by Met), SEQ ID NO: 4 (human) (UniProt P33151); test: sandwich ELISA, BV9 capture, rabbit polyclonal detection; CAD1-4 at 0.63 ng/mL; second replicate
[8] = molecular target: recombinant fragment of human VE-cadherin extracellular region, CAD 1-4 fragment (Asp48-Glu478, preceded by Met), SEQ ID NO: 4 (human) (UniProt P33151); test: sandwich ELISA, BV9 capture, rabbit polyclonal detection; CAD1-4 at 10 ng/mL
[9] = molecular target: recombinant fragment of human VE-cadherin extracellular region, CAD 1-4 fragment (Asp48-Glu478, preceded by Met), SEQ ID NO: 4 (human) (UniProt P33151); test: sandwich ELISA, BV9 capture, rabbit polyclonal detection; CAD1-4 at 2.5 ng/mL; second replicate
[10] = molecular target: recombinant fragment of human VE-cadherin extracellular region, CAD 1-4 fragment (Asp48-Glu478, preceded by Met), SEQ ID NO: 4 (human) (UniProt P33151); test: sandwich ELISA, BV9 capture, rabbit polyclonal detection; CAD1-4 at 10 ng/mL; mean OD minus OD at 0 ng/mL
[11] = molecular target: recombinant fragment of human VE-cadherin extracellular region, CAD 1-4 fragment (Asp48-Glu478, preceded by Met), SEQ ID NO: 4 (human) (UniProt P33151); test: SDS-PAGE and western blot of the purified fragment with BV9
[12] = molecular target: recombinant fragment of human VE-cadherin extracellular region, CAD 1-4 fragment (Asp48-Glu478, preceded by Met), SEQ ID NO: 4 (human) (UniProt P33151); test: sandwich ELISA, BV9 capture, rabbit polyclonal detection; CAD1-4 at 10 ng/mL; remark: listed apart in the source
[13] = molecular target: recombinant fragment of human VE-cadherin extracellular region, CAD 1-4 fragment (Asp48-Glu478, preceded by Met), SEQ ID NO: 4 (human) (UniProt P33151); test: sandwich ELISA, BV9 capture, rabbit polyclonal detection; CAD1-4 at 10 ng/mL; mean OD minus OD at 0 ng/mL; remark: listed apart in the source
[14] = molecular target: recombinant fragment of human VE-cadherin extracellular region, CAD 1-4 fragment (Asp48-Glu478, preceded by Met), SEQ ID NO: 4 (human) (UniProt P33151); test: sandwich ELISA, BV9 capture, rabbit polyclonal detection; CAD1-4 at 1.25 ng/mL
[15] = molecular target: circulating (soluble) human VE-cadherin, 90 kDa form, in human serum or plasma (human) (UniProt P33151); test: western blot of healthy human serum diluted 1/500, BV9 tested from 0.02 to 1 µg/mL
[16] = molecular target: recombinant fragment of human VE-cadherin extracellular region, CAD 1-4 fragment (Asp48-Glu478, preceded by Met), SEQ ID NO: 4 (human) (UniProt P33151); test: sandwich ELISA, BV9 capture, rabbit polyclonal detection; CAD1-4 at 5 ng/mL; mean OD minus OD at 0 ng/mL
[17] = molecular target: recombinant fragment of human VE-cadherin extracellular region, CAD 1-4 fragment (Asp48-Glu478, preceded by Met), SEQ ID NO: 4 (human) (UniProt P33151); test: sandwich ELISA, BV9 capture, rabbit polyclonal detection; CAD1-4 at 0.63 ng/mL
[18] = molecular target: recombinant fragment of human VE-cadherin extracellular region, CAD 1-4 fragment (Asp48-Glu478, preceded by Met), SEQ ID NO: 4 (human) (UniProt P33151); test: sandwich ELISA, BV9 capture, rabbit polyclonal detection; CAD1-4 at 2.5 ng/mL; remark: listed apart in the source
[19] = molecular target: recombinant fragment of human VE-cadherin extracellular region, CAD 1-4 fragment (Asp48-Glu478, preceded by Met), SEQ ID NO: 4 (human) (UniProt P33151); test: sandwich ELISA, BV9 capture, rabbit polyclonal detection; CAD1-4 at 5 ng/mL
[20] = molecular target: recombinant fragment of human VE-cadherin extracellular region, CAD 1-4 fragment (Asp48-Glu478, preceded by Met), SEQ ID NO: 4 (human) (UniProt P33151); test: sandwich ELISA, BV9 capture, rabbit polyclonal detection; CAD1-4 at 0.63 ng/mL; remark: listed apart in the source

Q: Which Corr. OD [1] does the source give for “anti-VEcadherin mouse mAb, clone BV9 (Abcam, product datasheet ab7047) (antibody)” here?
A: 0.116 OD

Q: What about the mean OD [2] of the same substance?
A: 1.17 OD

Q: What about the OD [3] of the same substance?
A: 0.975 OD

Q: What about the Corr. OD [4] of the same substance?
A: 0.087 OD

Q: What about the OD [5] of the same substance?
A: 1.26 OD

Q: And the OD [6]?
A: 1.34 OD

Q: And the OD [7]?
A: 0.899 OD

Q: And the mean OD [8]?
A: 1.95 OD

Q: And the OD [9]?
A: 1.09 OD

Q: And the Corr. OD [10]?
A: 1.06 OD

Q: And the lowest detectable quantity [11]?
A: 1 ng

Q: And the OD1 [12]?
A: 1.76 OD

Q: And the OD2 [12]?
A: 1.76 OD

Q: What about the mean OD [12] of the same substance?
A: 1.76 OD

Q: What about the Corr. OD [13] of the same substance?
A: 1.06 OD

Q: What about the mean OD [14] of the same substance?
A: 1 OD

Q: And the lowest mAb concentration giving detection [15]?
A: 0.02 µg/mL

Q: What about the mAb concentration at signal plateau [15] of the same substance?
A: 0.1 to 1 µg/mL

Q: What about the Corr. OD [16] of the same substance?
A: 0.512 OD

Q: What about the mean OD [17] of the same substance?
A: 0.937 OD

Q: And the OD1 [18]?
A: 0.988 OD

Q: What about the OD2 [18] of the same substance?
A: 0.985 OD

Q: What about the mean OD [18] of the same substance?
A: 0.987 OD

Q: And the mean OD [19]?
A: 1.4 OD

Q: And the OD1 [20]?
A: 0.794 OD

Q: What about the OD2 [20] of the same substance?
A: 0.789 OD

Q: What about the mean OD [20] of the same substance?
A: 0.792 OD
